For the assay, the target named is CD23的多肽抗原 (synthetic CD23 peptide antigens of SEQ ID NO:1-3). The assay is described as follows: indirect ELISA; peptide antigens of SEQ ID NO:1-3 on the 96-well plate at varied molar concentrations, antibody at 0.125 μg/mL (about 0.83 nmol/L), HRP goat anti-mouse IgG, OD450; value given at a peptide concentration of 0.56 μmol/L. (In general: In an ELISA, binding on a coated surface is turned into a signal by an enzyme label.)

B1: 365A2D1抗CD23单克隆抗体 (anti-CD23 monoclonal antibody secreted by mouse hybridoma cell line 365A2D1) (antibody, V domains shown)
VH: EVQLQESGGGLVQPKGSLKLSCAASGYTFNTYAMHWVRQAPGKGLEWVARIRSKSNNYEPYYADSVKDRFTISRDDSQSILYLQMNNLKTEDTAMYYCVREYYDAMDYWGQGTSVTVSS
VL: EIVMTQAAPSVSVTPGESVSISCRSSQSLLHSNGNTYLYWFLQRPGQSPHLLISRVSNLASGVPDRFSGSGSGTAFTLRISRVEAEDVGVYYCMQGLEFPWTFGGGTKLEIK
As to B1, the Kd (as a rule, the equilibrium constant for the complex coming apart) stood at 700 nM.
